Reference: publication PMC10046281, “MoS2-Carbon Nanodots as a New Electrochemiluminescence Platform for Breast Cancer Biomarker Detection”

Target: HER2 (recombinant human HER2 standard) (human, UniProt P04626 23-652)
Experiment: electrochemiluminescence aptasensor; aptamer immobilized on MoS2-NS, BSA blocked; [Ru(bpy)3]2+/CD read-out; LOD 1.84 fg/mL (not a Kd); HER2 diluted in 10 mM phosphate buffer, 0.4 M NaCl, pH 7.4; BSA-blocked electrode; incubation temperature not given in the material
Conditions: protein: recombinant

B1: Apt-SH (HER2 aptamer) (ssDNA)
DNA: AACCGCCCAAATCCCTAAGAGTCTGCACTTGTCATTTTGTATATGTATTTGGTTTTTGGCTCTCACAGACACACTACACACGCACA
modifications: 5'-SH-(CH2)6 thiol
Does B1 bind?
Result: binds
